Here are results for one substance from paper PMC11696170.

Where two headings read alike, the source gives them in different places.

The target in test [1] is AuraA, dimethylallyl tryptophan synthase (DMATS) family prenyltransferase (Penicillium solitum HDN11-131).
For test [2] the target is unchanged. Nature of the test: cryo-EM structure.

For the substance “AuraA, dimethylallyl tryptophan synthase (DMATS) family prenyltransferase (enzyme)”, the stoichiometry N in test [1] and in test [2] was 4 in each case.
